Values of other authors, collected in article PMC7925366.
Values joined by “and” are separate entries in the source; they are usually repeats but may differ in a detail not shown here. Equal entries are not always repeated. Where two headings read alike, the source gives them in different places.

Tests used:
[1] = molecular target: vimentin coils 1A and 1B (Homo sapiens) (UniProt P08670); assay: MST
[2] = molecular target: vimentin coils 1A and 1B (Homo sapiens) (UniProt P08670)

Chain of UniProt P08670 (P08670 96-245): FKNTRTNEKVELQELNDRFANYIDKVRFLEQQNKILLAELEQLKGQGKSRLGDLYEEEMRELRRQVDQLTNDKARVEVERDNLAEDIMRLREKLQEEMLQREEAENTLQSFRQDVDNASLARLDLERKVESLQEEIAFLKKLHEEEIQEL

Row | Kd [1] | Kd [2] | Substance
1 | 31 µM and 70 µM | – | periplakin linker domain (from UniProt O60437)
2 | – | 19 µM | envoplakin PRD (from UniProt Q92817)
